# Reference: patent US9333268B2, “Methods of treatment with arginine deiminase” (Polaris Group, priority 2012, dated 2016)
# B1: ADI-PEG 20: arginine deiminase (ADI) formulated with PEG of 20,000 m.w. (protein)
# chain: MSVFDSKFNGIHVYSEIGELETVLVHEPGREIDYITPARLDELLFSAILESHDARKEHQSFVKIMKDRGINVVELTDLVAETYDLASKAAKEEFIETFLEETVPVLTEANKEAVRAFLLSKPTHEMVEFMMSGITKYELGVESENELIVDPMPNLYFTRDPFASVGNGVTIHFMRYIVRRRETLFARFVFRNHPKLVKTPWYYDPAMKMSIEGGDVFIYNNETLVVGVSERTDLDTITLLAKNIKANKEVEFKRIVAINVPKWTNLMHLDTWLTMLDKNKFLYSPIANDVFKFWDYDLVNGGAEPQPQLNGLPLDKLLASIINKEPVLIPIGGAGATEMEIARETNFDGTNYLAIKPGLVIGYDRNEKTNAALKAAGITVLPFHGNQLSLGMGNARCMSMPLSRKDVKW
# Experiments:
# Caki-1 xenografts = test: Caki-1 renal cell carcinoma xenografts in BALB/c-nude mice; type: in vivo; conditions: intramuscular
# Experimental: The activity of ADI-PEG 20 was assessed in mice bearing Caki-1 (ATCC No. HTB-46™) xenografts. Renal cell carcinoma Caki-1 xenografts were established in female BALB/c-nude mice, 3-4 weeks of age with a body weight of 20 g (SLAC, Shanghai, China). To establish the tumors, 5×10^6 cells in media were mixed 1:1 with Matrigel High Concentration (BD Biosciences) and injected subcutaneously in the abdominal area of the mice. Tumor growth was regularly measured and tumor volume calculated using the formula (TV=(length×width^2)/2). When tumors reached an approximate volume of 125 mm^3, ADI-PEG20 was administered at doses level of 160, 320 and 640 IU/m^2 once every week for four weeks by intramuscular injection. Each study group had 9 mice. Mice were euthanized when tumors reached an approximate volume of 1100 mm^3. […] More than 80% tumor inhibition was achieved when 640 IU/m^2 was used.
# In an additional experiment, the activity of ADI-PEG 20 as either a single agent or in combination with rapamycin was assessed in mice bearing Caki-1 xenograft. Renal cell carcinoma xenografts were established in female BALB/c-nude mice, 3-4 weeks of age weighing about 20 g (SLAC, Shanghai, China). […] Tumor growth was regularly measured and tumor volume calculated using the formula (TV=(length×width^2)/2). […]
# NCI-H69 xenografts = test: ASS-positive NCI-H69 SCLC xenografts in BALB/c-nude mice; type: in vivo; conditions: five doses of 2 IU over 20 days, intraperitoneal
# Experimental: The activity of ADI-PEG 20 was also assessed in mice bearing ASS-positive NCI-H69 SCLC xenografts. Small cell lung cancer xenografts were established in female BALB/c-nude mice, 3-4 weeks of age weighing ˜20 g (Charles River Labs, Wilmington, Mass., USA). To establish the tumors, 10×10^6 cells in media were mixed 1:1 with Matrigel High Concentration (BD Biosciences) and injected subcutaneously in the abdominal area of the mice. Tumor growth was regularly measured and tumor volume calculated using the formula (TV=(length×width^2)/2). All animal studies were approved by the MSKCC Institutional Animal Care and Use Committee. Mice were euthanized when tumors reached an approximate volume of 1,000 mm^3.
# The anti-tumor efficacy of ADI-PEG 20 was simultaneously assessed in mice bearing either moderate or large SK-LC-13 SCLC xenografts. In the first study, treatment was initiated once tumors had reached an average size of 125 mm^3. In the large xenograft study, treatment was initiated once tumors had reached an average size of 500 mm^3. Arginine deiminase-PEG20 was administered at doses of 1, 2 and 5 IU per animal once every 5 days for 20 days (five doses). […] Additionally, the efficacy of ADI-PEG 20 was assessed in mice bearing ASS-positive NCI-H69 xenografts. […]
molecule,measurement,setting,value
B1,tumor growth,"Caki-1 xenografts; 160, 320 and 640 IU/m^2 weekly for four weeks",inhibited tumor growth in a dose dependent manner
same,tumor inhibition,Caki-1 xenografts; 640 IU/m^2 weekly for four weeks,More than 80%
same,tumor growth,NCI-H69 xenografts,did not produce any effect on tumor growth
